Assay [1] addresses CsaC-H228A (Neisseria meningitidis serogroup A). The assay is described as follows: crystal structure; sitting drop, PEG200, HEPES pH 7.0/7.6; two protein molecules in the asymmetric unit, tetrameric assembly in the crystal packing; apo, CPS-DP4-soaked (wild type) and acetyl-CoA-soaked (H228A) crystals.
Assay [2] has as its target capsule O-acetyltransferase CsaC, wild type (Neisseria meningitidis serogroup A). The assay is described as follows: AUC; sedimentation velocity (3.0 to 40.9 µM CsaC, 35,000 rpm) and sedimentation equilibrium (9.1 and 40.9 µM CsaC, single species model), 20 °C, 50 mM HEPES pH 7.0, 0.1 M NaCl, 5 mM MgCl2, 1 mM EDTA.
Assay [3] has the same target. In words: crystal structure; sitting drop, PEG200, HEPES pH 7.0/7.6; two protein molecules in the asymmetric unit, tetrameric assembly in the crystal packing; apo, CPS-DP4-soaked (wild type) and acetyl-CoA-soaked (H228A) crystals.

Consider two substances from PMC7501274.

As for CsaC-H228A (enzyme), in assay [1], the stoichiometry N amounted to 4.
Take “capsule O-acetyltransferase CsaC, wild type (enzyme)”: the stoichiometry N in assay [2] and in assay [3] was 4 in each case.

For orientation: stoichiometry N means the number of molecules, sites or subunits per partner or assembly.
